Measured values: article PMC4051119, “Bacterial actin MreB forms antiparallel double filaments” (eLife, 2014)

How the values were obtained:
[1] = molecular target: the molecule itself; test: cryo-electron microscopy and tomography; MreB 1 mg/ml with 1 mg/ml liposomes (E. coli total lipid extract) or lipid tubes (plus 30% C24:1 β-D galactosyl ceramide), 2 mM ATP, 4 mM MgCl2; CcMreB in 12.5 mM Tris-HCl 7.5, TmMreB in 100 mM Tris-HCl 7.5, 200 mM NaCl; 2D and subtomogram averaging
[2] = molecular target: the molecule itself; test: crystal structure; C. crescentus MreB constructs crystallised at 10-30 mg/ml, empty or with ADP or AMPPNP, no inhibitor; filament or monomer state read from the crystal packing
[3] = molecular target: the molecule itself; test: as above; remark: listed apart in the source
[4] = molecular target: the molecule itself; test: negative-stain electron microscopy; pre-assembled filaments (CcMreB 0.25 mg/ml, V118E 0.13 mg/ml) in 12.5 mM Tris-HCl 7.5, 2 mM ATP, 4 mM MgCl2 on a monolayer of E. coli total lipid extract, 2% uranyl acetate; 2D averaging

B1: Full-length untagged Thermotoga maritima MreB1 (TmMreB) (natural protein, UniProt Q9WZ57 1-336, looked up)
chain: MLRKDIGIDLGTANTLVFLRGKGIVVNEPSVIAIDSTTGEILKVGLEAKNMIGKTPATIKAIRPMRDGVIADYTVALVMLRYFINKAKGGMNLFKPRVVIGVPIGITDVERRAILDAGLEAGASKVFLIEEPMAAAIGSNLNVEEPSGNMVVDIGGGTTEVAVISLGSIVTWESIRIAGDEMDEAIVQYVRETYRVAIGERTAERVKIEIGNVFPSKENDELETTVSGIDLSTGLPRKLTLKGGEVREALRSVVVAIVESVRTTLEKTPPELVSDIIERGIFLTGGGSLLRGLDTLLQKETGISVIRSEEPLTAVAKGAGMVLDKVNILKKLQGAG
notes: MreB1, Thermotoga maritima, GenBank AAD35673.1, M1-G336; called non-tagged / untagged; also called pFE349 (plasmid); source: expressed as an Intein-CBD-tagged fusion from plasmid pFE349 and purified as described previously (Salje et al., 2011)
- binding result [1]: binds

B2: ΔCcMreBh (M-I9-CcMreB-A347-GSHHHHHH) (domain or fragment, Caulobacter crescentus)
chain: MISNDIAIDLGTANTLIYQKGKGIVLNEPSVVALRNVGGRKVVHAVGIEAKQMLGRTPGHMEAIRPMRDGVIADFEVAEEMIKYFIRKVHNRKGFVNPKVIVCVPSGATAVERRAINDSCLNAGARRVGLIDEPMAAAIGAGLPIHEPTGSMVVDIGGGTTEVAVLSLSGIVYSRSVRVGGDKMDEAIISYMRRHHNLLIGETTAERIKKEIGTARAPADGEGLSIDVKGRDLMQGVPREVRISEKQAADALAEPVGQIVEAVKVALEATPPELASDIADKGIMLTGGGALLRGLDAEIRDHTGLPVTVADDPLSCVALGCGKVLEHPKWMKGVLESTLA
notes: start methionine placed before I9; MreB, Caulobacter crescentus, GenBank ACL95077.1, I9-A347 (N-terminal amphipathic helix deleted); Electrospray mass 36,916 Da (36,911 Da expected); also called CCM2; source: E. coli C41(DE3), purified (HisTrap, Sephacryl S300HR)
- binding result [2]: binds

B3: ΔCcMreBdh (M-I9-CcMreB(F102S, V103G)-A347-GSHHHHHH) (domain or fragment, Caulobacter crescentus)
chain: MISNDIAIDLGTANTLIYQKGKGIVLNEPSVVALRNVGGRKVVHAVGIEAKQMLGRTPGHMEAIRPMRDGVIADFEVAEEMIKYFIRKVHNRKGSGNPKVIVCVPSGATAVERRAINDSCLNAGARRVGLIDEPMAAAIGAGLPIHEPTGSMVVDIGGGTTEVAVLSLSGIVYSRSVRVGGDKMDEAIISYMRRHHNLLIGETTAERIKKEIGTARAPADGEGLSIDVKGRDLMQGVPREVRISEKQAADALAEPVGQIVEAVKVALEATPPELASDIADKGIMLTGGGALLRGLDAEIRDHTGLPVTVADDPLSCVALGCGKVLEHPKWMKGVLESTLA
notes: start methionine placed before I9; MreB, Caulobacter crescentus, GenBank ACL95077.1, I9-A347, hydrophobic loop mutated (F102S, V103G); Electrospray mass 36,813 Da (36,809 Da expected); also called pFE397 (plasmid); source: E. coli C41(DE3), purified (HisTrap, Sephacryl S300HR)
- binding result [3]: binds

B4: Full-length, untagged MreB from C. crescentus (CcMreB) (natural protein, Caulobacter crescentus, UniProt A0A0H3C7V4 1-347, looked up)
chain: MFSSLFGVISNDIAIDLGTANTLIYQKGKGIVLNEPSVVALRNVGGRKVVHAVGIEAKQMLGRTPGHMEAIRPMRDGVIADFEVAEEMIKYFIRKVHNRKGFVNPKVIVCVPSGATAVERRAINDSCLNAGARRVGLIDEPMAAAIGAGLPIHEPTGSMVVDIGGGTTEVAVLSLSGIVYSRSVRVGGDKMDEAIISYMRRHHNLLIGETTAERIKKEIGTARAPADGEGLSIDVKGRDLMQGVPREVRISEKQAADALAEPVGQIVEAVKVALEATPPELASDIADKGIMLTGGGALLRGLDAEIRDHTGLPVTVADDPLSCVALGCGKVLEHPKWMKGVLESTLA
notes: MreB, Caulobacter crescentus, GenBank ACL95077.1, M1-A347; Forms filaments (double protofilaments); number of copies not defined; also called Caulobacter MreB; pFE403 (plasmid); source: E. coli C41, purified (HisTrap, elution by SUMO protease, GST column, S300HR size exclusion)
- binding result [4]: binds

B5: CcMreB-V118E (inter-protofilament mutant V118E in full-length CcMreB) (natural protein, Caulobacter crescentus, UniProt A0A0H3C7V4 1-347, looked up)
chain: MFSSLFGVISNDIAIDLGTANTLIYQKGKGIVLNEPSVVALRNVGGRKVVHAVGIEAKQMLGRTPGHMEAIRPMRDGVIADFEVAEEMIKYFIRKVHNRKGFVNPKVIVCVPSGATAEERRAINDSCLNAGARRVGLIDEPMAAAIGAGLPIHEPTGSMVVDIGGGTTEVAVLSLSGIVYSRSVRVGGDKMDEAIISYMRRHHNLLIGETTAERIKKEIGTARAPADGEGLSIDVKGRDLMQGVPREVRISEKQAADALAEPVGQIVEAVKVALEATPPELASDIADKGIMLTGGGALLRGLDAEIRDHTGLPVTVADDPLSCVALGCGKVLEHPKWMKGVLESTLA
notes: MreB, Caulobacter crescentus, GenBank ACL95077.1, full length with V118E; also called pFE542 (plasmid); source: E. coli C41, purified (HisTrap, elution by SUMO protease, GST column, S300HR size exclusion); not shown: His-SUMO, N-terminal, cleaved
- binding result [4]: binds
